This note sets out measurements from patent US5674835, “Papillomaviral expression inhibitors” (New England Medical Center Hospitals, Inc.).

What all share (conditions): tags: 13 N-terminal amino acids of lambda cII; partially purified from E. coli N6405; chain copies: 2
Series [1] concerns the target T1, BPV-1 E2 C-terminal segment (cII-E2 fusion, pCOE2-1) (Bovine papillomavirus type 1, UniProt P03122 P03122:114-410).
T1 chain: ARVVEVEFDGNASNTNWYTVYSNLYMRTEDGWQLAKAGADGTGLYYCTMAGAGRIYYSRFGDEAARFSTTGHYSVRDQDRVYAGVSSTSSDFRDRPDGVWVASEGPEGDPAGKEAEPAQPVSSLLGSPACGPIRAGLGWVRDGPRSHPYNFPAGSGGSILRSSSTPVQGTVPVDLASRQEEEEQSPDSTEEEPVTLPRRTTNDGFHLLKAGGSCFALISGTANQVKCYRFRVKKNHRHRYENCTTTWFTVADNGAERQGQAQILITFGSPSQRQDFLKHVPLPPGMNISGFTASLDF
As to the kind of experiment: competition; single strand did not block immunoprecipitation of dsDNA.

Series [2] has as its target T1, BPV-1 E2 C-terminal segment (cII-E2 …). As to the kind of experiment: competition; about 1000 times more effective competitor than N2; DNA immunoprecipitation.
Series [3] has the same target. As to the kind of experiment: competition; relative to N1; no consensus site.

Turning to CGTCAAACCGTCTTCGGTGCTC (ssDNA) [single-stranded oligonucleotide with site IIIb], the binding result in series [1] was “no binding”.

B1: 23 bp URR fragment with E2 site IIIb (dsDNA)
DNA 1: CGTCAAACCGTCTTCGGTGCTC
DNA 2: GAGCACCGAAGACGGTTTGACG
In turn, B1 came in with a binding signal in series [2] of around 1000 fold.

B2: 23 bp fragment without E2 site (dsDNA)
DNA 1: GCGCATAATCAGCTTAATTGGTG
DNA 2: CACCAATTAAGCTGATTATGCGC
In the case of B2, in series [3], the binding signal is around 0.001 fold.
Take GCGCATAATCAGCTTAATTGGTG (ssDNA) [single-stranded oligonucleotide without E2 site]: the binding result in series [1] is recorded as “no binding”.
